Results from paper PMC5350145, “Either fadD1 or fadD2, Which Encode acyl-CoA Synthetase, Is Essential for the Survival of Haemophilus parasuis SC096” (Frontiers in Cellular and Infection Microbiology, 2017).

Key:
Test in all cases: DTNB free-thiol (CoA) assay, Hanes-Woolf
[1] = target: T1, FadD1 (Glaesserella parasuis, UniProt B8F3K7); format: biochemical; conditions: 5 mM ATP, 0.5 mM CoA, 10 mM MgCl2, 0.1% Triton X-100, pH 7.2, 37°C; read-out: Kinetic parameters^a / Km^c
T1 construct: gene lcfA; full length, His-tagged in pET28b (NdeI/HindIII), no tag removal described; E. coli BL21 host; locus tag is that of strain SH0165
T1 sequence (B8F3K7 1-566): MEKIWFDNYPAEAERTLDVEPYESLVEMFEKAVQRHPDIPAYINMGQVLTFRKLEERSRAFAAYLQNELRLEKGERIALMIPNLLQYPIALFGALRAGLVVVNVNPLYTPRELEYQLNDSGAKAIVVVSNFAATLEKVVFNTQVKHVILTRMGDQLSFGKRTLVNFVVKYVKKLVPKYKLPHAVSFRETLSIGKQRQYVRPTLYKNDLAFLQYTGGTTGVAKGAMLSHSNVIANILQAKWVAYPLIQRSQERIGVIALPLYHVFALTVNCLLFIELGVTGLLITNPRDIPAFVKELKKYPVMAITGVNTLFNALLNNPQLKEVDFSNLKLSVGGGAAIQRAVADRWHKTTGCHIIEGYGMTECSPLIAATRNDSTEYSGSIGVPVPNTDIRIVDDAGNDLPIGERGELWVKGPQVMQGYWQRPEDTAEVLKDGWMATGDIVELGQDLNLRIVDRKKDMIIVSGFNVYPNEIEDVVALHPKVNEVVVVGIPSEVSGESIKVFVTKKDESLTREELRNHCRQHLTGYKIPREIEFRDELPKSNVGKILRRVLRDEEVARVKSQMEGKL
Source text: (§1) DTNB free-thiol (CoA) assay, Hanes-Woolf on FadD1

[2] = substrate: CCCCCCCCCCCCCC(=O)O; format: biochemical, Glaesserella parasuis; conditions: 5 mM ATP, 0.5 mM CoA, 10 mM MgCl2, 0.1% Triton X-100, pH 7.2, 37°C
Source text: as §1

[3] = substrate: CCCCCCCCCCCCCCCC(=O)O; format: biochemical, Glaesserella parasuis; conditions: 5 mM ATP, 0.5 mM CoA, 10 mM MgCl2, 0.1% Triton X-100, pH 7.2, 37°C
Source text: as §1

[4] = substrate: CCCCCCCCCCCCCC(=O)O; format: biochemical, Glaesserella parasuis; conditions: 5 mM ATP, 0.5 mM CoA, 10 mM MgCl2, 0.1% Triton X-100, pH 7.2, 37°C; remark: listed apart in the source
Source text: (§2) DTNB free-thiol (CoA) assay, Hanes-Woolf on FadD2

[5] = substrate: CCCCCCCCCCCCCCCC(=O)O; format: biochemical, Glaesserella parasuis; conditions: 5 mM ATP, 0.5 mM CoA, 10 mM MgCl2, 0.1% Triton X-100, pH 7.2, 37°C; remark: listed apart in the source
Source text: as §2

Molecule `CCCCCCCC/C=C\CCCCCCCC(=O)O` [C18:1] has a Km [1] of 15.6 µM.

B1: FadD1 (Glaesserella parasuis SH0165) (protein)
chain: T1 sequence (B8F3K7 1-566)
notes: full length, His-tagged in pET28b (NdeI/HindIII), no tag removal described; E. coli BL21 host; locus tag is that of strain SH0165
Work on B1 yielded a Km [2] of 41.48 µM, a kcat [2] of 0.083 s⁻¹ and a kcat/Km [2] of 2010 M⁻¹ s⁻¹. It also gave a Km [3] of 39.90 µM, a kcat [3] of 0.098 s⁻¹ and a kcat/Km [3] of 2450 M⁻¹ s⁻¹.

B2: FadD2 (Glaesserella parasuis SH0165) (protein)
chain: MASLDFHFVNRFRLQAKKWLNRTALRFREQAQWQEMSWQTFQQEIDRFSYALIAQHIDIQDKIGIFANNMPRWTIADFGAMQARAVAVPIYATNTAKQVEYIVNDADIKILFVGDQEQLDQVCQIANNCPQLMKIVAMKANMDLRDLPNACYWEDFLDVVPNEAEFEKRLNSKQLSDLFTLIYTSGTTGEPKGVMLDYANLAHQLNAHDLALNVNEDDVSLSFLPLSHIFERAWVAYVFHRGATNCYLEDTNHVRDALTTLKPTVMCAVPRFYEKIYTAVWDKVEKAPAHRRALFNWAIRVGEKHYQTEQPSQWLRLQYALADKLVLTKLRALLGGRIKMMPCGGAKLEASIGSFFHSIGINIKLGYGMTETTATVSCWQDKGFNPNSIGTLMPNAEVKIGEENEILVRGGMVMRGYYKKPEETAKAFTEDGFLRTGDVGEMDSCGNLFITDRLKELMKTLNGKYIAPQYIEGKIGKDKFIEQIAVIADAKKYVSALIVPCFDSLEEYAKQLNIKYQDRIELIKHSDIIQMFERRIHELQKELPSFEQVKKFTLLPQAFSTAMEEITPTLKLRRKVIMQRYREQIEEMYNERSLT
notes: as for B1
B2 showed a Km [4] of 173.40 µM, a kcat [4] of 0.002 s⁻¹ and a kcat/Km [4] of 10 M⁻¹ s⁻¹. For the same molecule, the Km [5] was 128.30 µM, the kcat [5] was 0.020 s⁻¹ and the kcat/Km [5] was 160 M⁻¹ s⁻¹.
